# Results taken from patent publication US20030134779A1, “Method and composition for treatment and/or prevention of antibiotic-resistant microorganism infections” (priority 2002, published 2003).
# Experiments:
# [1] = test system: β-lactamase activity of S. aureus PC-1; experiment: β-lactamase activity, nitrocefin assay, human LF; assay type: cell-based; settings: incubation for 4 h
# [2] = test system: β-lactamase activity of S. aureus SHY97-4320; experiment: β-lactamase activity, nitrocefin assay, human LF; assay type: cell-based, Staphylococcus aureus
# Chain of β-lactamase activity of S. aureus SHY97-4320 (P00807 25-281): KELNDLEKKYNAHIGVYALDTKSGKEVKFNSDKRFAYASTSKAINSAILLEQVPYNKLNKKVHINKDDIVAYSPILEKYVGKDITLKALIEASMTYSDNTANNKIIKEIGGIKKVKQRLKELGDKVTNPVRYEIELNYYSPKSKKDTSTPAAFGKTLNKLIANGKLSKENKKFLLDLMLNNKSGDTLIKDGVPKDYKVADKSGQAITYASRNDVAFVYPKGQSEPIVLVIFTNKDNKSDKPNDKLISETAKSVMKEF
# Procedure: Penicillin G was purchased from Novopharm Limited (Toronto, Ontario, Canada). […] Antibiotic stock solutions were always freshly prepared and diluted to the desired concentration in Mueller Hinton broth (MHB) medium (Difco Laboratories, Detroit, MI). β-Lactamase activity was measured using a quantitative spectrophotometric assay with the chromogenic cephalosporin nitrocefin. Bacterial cells were first exposed to penicillin and/or LF during 4 and 22-h in broth. At each time point, the number of cfu/ml were determined and cells aliquots were centrifuged.
# The pellets were suspended in 10 mM HEPES buffer (pH 7.4) to an OD415 nm of 0.4 for PC-1 and 4 for strain SHY97-4320. Nitrocefin (100 μM) was added to 20 μl of cells in a final volume of 200 μl. Hydrolysis was measured at 486 nm on a Spectra Max 250 Microplate Spectrophotometer System of Molecular Device (Fisher Scientific, Ottawa, Canada). β-Lactamase activity was expressed as ΔO.D.486 nm/min and corrected for bacterial OD.
# Chain of β-lactamase activity of S. aureus PC-1 (P00807 25-281): as above
molecule,measurement,setting,value
"human LF: Human LF (Sigma) (protein, UniProt P02788 20-710, looked up) Lactotransferrin: GRRRSVQWCAVSQPEATKCFQWQRNMRKVRGPPVSCIKRDSPIQCIQAIAENRADAVTLDGGFIYEAGLAPYKLRPVAAEVYGTERQPRTHYYAVAVVKKGGSFQLNELQGLKSCHTGLRRTAGWNVPIGTLRPFLNWTGPPEPIEAAVARFFSASCVPGADKGQFPNLCRLCAGTGENKCAFSSQEPYFSYSGAFKCLRDGAGDVAFIRESTVFEDLSDEAERDEYELLCPDNTRKPVDKFKDCHLARVPSHAVVARSVNGKEDAIWNLLRQAQEKFGKDKSPKFQLFGSPSGQKDLLFKDSAIGFSRVPPRIDSGLYLGSGYFTAIQNLRKSEEEVAARRARVVWCAVGEQELRKCNQWSGLSEGSVTCSSASTTEDCIALVLKGEADAMSLDGGYVYTAGKCGLVPVLAENYKSQQSSDPDPNCVDRPVEGYLAVAVVRRSDTSLTWNSVKGKKSCHTAVDRTAGWNIPMGLLFNQTGSCKFDEYFSQSCAPGSDPRSNLCALCIGDEQGENKCVPNSNERYYGYTGAFRCLAENAGDVAFVKDVTVLQNTDGNNNEAWAKDLKLADFALLCLDGKRKPVTEARSCHLAMAPNHAVVSRMDKVERLKQVLLHQQAKFGRNGSDCPDKFCLFQSETKNLLFNDNTECLARLHGKTTYEKYLGPQYVAGITNLKKCSTSPLLEACEFLRK",reduction of β-lactamase activity,[1],50%
same,β-lactamase activity,"[2]; 1 mg/ml human LF added at the same time as 8 μg/ml penicillin G, P<0.001",an important reduction of the β-lactamase activity
same,β-lactamase activity,[2]; human LF 1 mg/ml alone,no β-lactamase activity
